The supplement of paper PMC9876800

Tested on: peptide library, one residue held at a place counted from the S/T acceptor
Experiment: relative phosphorylation of the sub-library (ratio to the mean residue at this position); higher = residue favoured
Conditions: human
Method in brief: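 Relative sub-library phosphorylation is the ratio of each sub-library's signal to the mean residue at that position. The signal came from phosphorimaging of spots on streptavidin membranes, quantified by densitometry, after purified recombinant kinases reacted with biotinylated degenerate peptide sub-libraries in 384-well plates. Reactions held 50 μM peptide and 50 μM ATP spiked with γ-32P-ATP for 90 min under kinase-specific conditions.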

TRPM7, construct: aa1158-1865, sequence (Q96QT4 1158-1865, looked up): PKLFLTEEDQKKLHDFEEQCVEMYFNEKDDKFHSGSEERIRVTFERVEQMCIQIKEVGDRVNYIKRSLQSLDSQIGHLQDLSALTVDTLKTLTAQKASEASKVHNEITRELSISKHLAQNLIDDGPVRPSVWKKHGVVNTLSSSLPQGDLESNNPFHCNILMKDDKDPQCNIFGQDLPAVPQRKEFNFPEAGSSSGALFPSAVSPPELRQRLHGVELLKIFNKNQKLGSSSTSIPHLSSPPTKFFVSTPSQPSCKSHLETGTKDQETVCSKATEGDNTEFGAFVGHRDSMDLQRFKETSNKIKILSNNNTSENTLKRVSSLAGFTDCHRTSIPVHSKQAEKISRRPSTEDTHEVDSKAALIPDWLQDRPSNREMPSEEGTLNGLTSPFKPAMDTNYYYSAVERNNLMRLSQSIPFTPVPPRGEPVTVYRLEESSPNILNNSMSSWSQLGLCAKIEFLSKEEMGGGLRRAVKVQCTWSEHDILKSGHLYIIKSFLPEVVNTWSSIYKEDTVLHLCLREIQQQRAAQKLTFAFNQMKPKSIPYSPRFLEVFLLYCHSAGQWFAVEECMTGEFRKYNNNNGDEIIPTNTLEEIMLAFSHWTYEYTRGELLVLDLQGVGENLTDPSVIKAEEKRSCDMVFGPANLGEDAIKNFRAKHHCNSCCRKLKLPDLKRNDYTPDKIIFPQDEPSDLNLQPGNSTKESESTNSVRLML
ULK2, construct: aa1-478, sequence (Q8IYT8 1-478, looked up): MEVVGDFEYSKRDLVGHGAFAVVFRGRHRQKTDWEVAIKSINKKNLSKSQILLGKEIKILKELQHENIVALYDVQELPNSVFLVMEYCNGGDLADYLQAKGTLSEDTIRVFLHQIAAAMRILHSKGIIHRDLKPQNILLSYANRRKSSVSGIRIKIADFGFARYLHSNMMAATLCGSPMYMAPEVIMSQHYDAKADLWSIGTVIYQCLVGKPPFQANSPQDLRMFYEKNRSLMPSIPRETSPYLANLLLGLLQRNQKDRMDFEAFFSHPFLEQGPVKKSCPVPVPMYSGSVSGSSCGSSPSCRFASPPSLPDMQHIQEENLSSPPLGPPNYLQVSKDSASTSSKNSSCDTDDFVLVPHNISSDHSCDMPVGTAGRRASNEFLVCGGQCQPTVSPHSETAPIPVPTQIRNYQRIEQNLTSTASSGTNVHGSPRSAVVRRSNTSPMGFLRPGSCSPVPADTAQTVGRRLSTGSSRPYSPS

TRPM7, construct: aa1158-1865 (from UniProt Q96QT4)
relative phosphorylation
Conditions	at +1	at +2	at +3	at +4	at -1	at -2	at -3	at -4	at -5
A fixed	0.649	1.18	1.19	0.591	0.902	1.13	0.852	1.08	1.17
D fixed	0.266	0.121	0.341	0.604	0.484	0.551	0.659	0.821	0.972
E fixed	0.501	0.0976	0.256	0.561	0.489	0.576	0.836	1.07	1.05
F fixed	0.859	1.81	0.854	0.958	0.58	1.19	1.06	1.19	1.03
G fixed	0.451	0.661	0.904	0.871	0.406	1.28	0.897	1.08	1.4
H fixed	1.1	1.22	1.22	1.34	1.47	0.842	1.05	0.86	1.1
I fixed	1.26	0.601	0.42	0.781	0.46	0.446	0.686	0.668	0.532
K fixed	2.16	1.21	2.47	2.09	2.76	0.931	1.13	1.31	1.24
L fixed	1.18	0.477	0.662	0.859	0.996	0.868	1.01	0.872	0.608
M fixed	1.06	0.808	0.664	1.12	0.969	1.42	1.19	1.17	0.767
N fixed	0.54	0.445	1.11	1.16	1.25	0.857	1.48	1.09	1.2
P fixed	0.142	1.42	0.623	0.676	0.896	1.28	1.07	0.972	1.1
Q fixed	1.58	1.11	1.15	1.17	1.07	1.11	0.995	0.948	1.01
R fixed	2.14	2.06	2.52	1.61	2.11	0.975	1.36	1.17	1.29
V fixed	1.1	0.572	0.573	0.637	0.586	0.553	0.74	0.675	0.732
W fixed	0.79	1.4	0.831	1.13	0.487	2.17	1.02	1.12	0.976
Y fixed	1.22	1.81	1.21	0.852	1.08	0.822	0.954	0.884	0.811
pThr fixed	0.455	0.317	0.499	0.68	0.488	0.704	0.893	1.11	1.05
pTyr fixed	0.856	0.489	0.677	0.541	0.776	0.675	1.09	0.916	1.08

ULK2, construct: aa1-478 (from UniProt Q8IYT8)
relative phosphorylation
Conditions	at +1	at +2	at +3	at +4	at -1	at -2	at -3	at -4	at -5
A fixed	0.728	0.707	0.906	0.969	1.08	1.11	0.982	1.31	1.38
D fixed	0.31	0.349	0.794	0.811	1.04	1.1	0.736	1.16	1.29
E fixed	0.365	0.348	0.775	0.701	0.927	1.05	0.599	0.953	1.08
F fixed	1.4	0.962	0.824	0.652	0.63	1.14	0.873	0.616	0.704
G fixed	0.631	0.582	1.39	1.28	1.09	1.12	1.24	1.47	1.23
H fixed	0.927	1.62	1.19	1.17	0.923	1.31	0.774	1.05	1.11
I fixed	1.49	1.03	0.872	0.796	0.637	0.728	0.739	0.685	0.679
K fixed	0.863	1.09	1.51	1.43	1.53	0.703	0.63	0.968	1.21
L fixed	1.07	0.851	0.858	0.831	0.788	0.843	1.54	0.738	0.748
M fixed	1.78	1.08	0.867	0.938	1.11	1.11	2.88	0.946	0.705
N fixed	0.665	0.848	0.895	1.02	1.12	1.18	1.12	1.24	1.16
P fixed	0.167	0.441	0.832	1.28	0.567	0.492	0.774	1.19	1.01
Q fixed	1.37	0.846	0.932	1.01	1.4	0.965	0.955	0.91	0.995
R fixed	1.05	1.59	1.37	1.28	1.48	0.655	0.693	0.965	1.1
V fixed	1.53	1.02	0.945	0.863	1.02	0.774	0.808	0.748	0.815
W fixed	1.14	1.6	1.02	1.11	0.814	1.6	1.02	1.3	1.02
Y fixed	1.51	2.04	1.02	0.854	0.85	1.12	0.652	0.761	0.754
pThr fixed	0.659	0.378	0.594	0.749	0.557	0.6	0.707	0.833	0.782
pTyr fixed	0.882	0.714	0.817	0.647	0.923	1.04	0.619	0.547	0.707
